In this test the target is T1, 新型冠状病毒核衣壳蛋白 (SARS-COV-2, UniProt P0DTC9 1-419).
T1 construct: also called SARS-COV-2 nucleocapsid protein; N protein
The test is described as follows: ELISA screening of mouse hybridomas for antigen-specific antibodies.

B1: 新型冠状病毒核衣壳抗体 mAb#9 (antibody, V domains shown)
VH: EVQLVESGGGLVKPGGSLKLSCAASGITFSDYYMYWVRQTPEKRLEWVATISDGGSYTYYPDSVKGRFTISRDNAKNNLYLQMSSLKSEDTAMYYCVRDKSMGFGAWFAYWGQGTLVTVSA
VL: EIVLTQSPTTMAASPGEKITITCSASSSISSNYLHWYQQRPGFSPKLLIYRTSNLASGVPARFSGSGSGTSYSLTIGTMEAEDVATYYCQQGHSIPYTFGGGTKLEIK
notes: also called 第二新型冠状病毒核衣壳蛋白抗体
Consider B1, for which the binding result was “binds”.
